{
  "source": "paper PMC7427744",
  "about": "“Using singular perturbation theory to determine kinetic parameters in a non-standard coupled enzyme assay” (Journal of Mathematical Biology, 2020)",
  "proteins": {"B1": {"name": "CnAptA (Cupriavidus necator H16) (protein)", "chain": "MDAAKTVIPDLDALWMPFTANRQYKAAPRLLASASGMYYTTHDGRQILDGCAGLWCVAAGHCRTEIAEAVARQAATLDYAPPFQMGHPLSFEAATKVAAIMPQGLDRIFFTNSGSESVDTALKIALAYHRARGEGQRTRFIGRERGYHGVGFGGMAVGGIGPNRKAFSANLMPGTDHLPATLNIAEAAFSKGQPQWGAHLADELERILALHDPSNVAAVIVEPLAGSAGVLVPPVGYLEKLREITSKHGILLIFDEVITAFGRLGAATAAERFKVTPDLITMAKAINNAAVPMGAVAVRREVHDTVVNSAAPGAIELLHGYTYSGHPLAAAAAIATLDLYQRENLFGRAAELAPVFEAAVHGVRGAPHVKDIRNYGLVAGIELEPRPGQPGARAYEAFLKCLELGVLVRYTGDILAFSPPLIISEAQIGELFDTVKKALQDIK", "notes": "E. coli ER2566 host; 47 kDa"}},
  "key": {"purified protein [1]": {"substrate": "CC(N)CC(=O)O", "experiment": "purified protein", "type": "biochemical, Cupriavidus necator", "settings": "co-substrate 5 mM pyruvate (assumed saturating), 2.5 mM NAD+, 5 uM PLP, sodium carbonate buffer pH 10, 30 C"}, "purified protein [2]": {"substrate": "NCCCCC(=O)O", "experiment": "purified protein", "type": "biochemical, Cupriavidus necator", "settings": "co-substrate 5 mM pyruvate (assumed saturating), 2.5 mM NAD+, 5 uM PLP, sodium carbonate buffer pH 10, 30 C"}},
  "data": [
    {"protein": "B1", "values": [
      {"measurement": "Km", "setting": "purified protein [1]", "result": 1300, "unit": "µM"},
      {"measurement": "Km", "setting": "purified protein [2]", "result": 930, "unit": "µM"}
    ]}
  ]
}
